Positions count from the first letter of the chain named. Like-named read-outs stand apart in the source and are kept apart here.
T1: human CD20 (human, UniProt P11836 1-297)
T1 construct: whole, on cells; also called wild type CD20; MS4A1
T1 sequence (looked up): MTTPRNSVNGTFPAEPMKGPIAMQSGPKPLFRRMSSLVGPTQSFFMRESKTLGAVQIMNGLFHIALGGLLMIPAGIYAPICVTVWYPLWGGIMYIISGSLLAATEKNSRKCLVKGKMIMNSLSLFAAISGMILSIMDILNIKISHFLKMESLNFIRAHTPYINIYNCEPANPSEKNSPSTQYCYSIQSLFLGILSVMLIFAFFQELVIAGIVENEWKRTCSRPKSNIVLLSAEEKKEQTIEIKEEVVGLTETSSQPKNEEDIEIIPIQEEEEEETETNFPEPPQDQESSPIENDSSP

T2: CD20-A170S P172S variant (human, UniProt P11836 1-297)
T2 construct: Stably expressed on 300-19 cells; also called CD20-AP; CD20AP
T2 chain: T1 sequence (looked up) with A170S, P172S

T3: CD20 N163D (human, UniProt P11836 1-297)
T3 construct: whole, on cells; Stably expressed on 300-19 cells
T3 sequence (looked up): T1 sequence (looked up) with N163D

T4: CD20 N163D N166D (human, UniProt P11836 1-297)
T4 construct: whole, on cells; Stably expressed on 300-19 cells; also called CD20-NNDD
T4 sequence (looked up): T1 sequence (looked up) with N163D, N166D

B1: muCD20-6 (antibody, mouse IgG1, kappa, V domains shown)
VH: QIQLVQSGPELKKPGETVKISCKASGYKFTNVGMNWVKQVPGKGLKWMGWINTYTGEPAYADDFKGRFVFSLETSASAAFLQINNLKNEDTATYFCARGAYYRYDLGMDYWGQGTSVTVSS
VL: DIVLTQSPASLAVSLGQRAIISCRASESVDNFGNSFMHWYQQKPGQPPTLLIYRASNLESGIPARFSGSGSRTDFTLTVNPVEADDIATYYCQQSYEDPFTFGAGTKLELKR
notes: Murine monoclonal antibody purified from hybridoma (ATCC PTA-10486); also called murine CD20-6
B2: muCD20-7 (antibody, mouse IgG1, kappa, V domains shown)
VH: B1 VH with I2L, K28S, V32Y, V40A, A59S, V69A, A78T, F80Y, N84S
VL: B1 VL with I20T, E27G, N31S, T49K, I62V, S69G, V79I, Y91F, K111M
notes: Murine monoclonal antibody purified from hybridoma (ATCC PTA-10487); also called murine CD20-7
B3: chCD20-7 (antibody, V domains shown)
VH: B1 VH with I2L, K28S, V32Y, V40A, A59S, V69A, A78T, F80Y, N84S
VL: B1 VL with I20T, E27G, N31S, T49K, I62V, S69G, V79I, Y91F, K111M
notes: Chimeric antibody: CD20-7 variable regions cloned into pchCD20-7HCN and pchCD20-7LCZ and expressed in HEK-293T cells; also called chimeric CD20-7
B4: rituximab (antibody, V domains shown)
VH: QVQLQQPGAELVKPGASVKMSCKASGYTFTSYNMHWVKQTPGRGLEWIGAIYPGNGDTSYNQKFKGKATLTADKSSSTAYMQLSSLTSEDSAVYYCARSTYYGGDWYFNVWGAGTTVTVSA
VL: QIVLSQSPAILSASPGEKVTMTCRASSSVSYIHWFQQKPGSSPKPWIYATSNLASGVPVRFSGSGSGTSYSLTISRVEAEDAATYYCQQWTSNPPTFGGGTKLEIK

What was measured:
[1] = molecular target: T1, human CD20; experiment: flow cytometry on 300-19 cells transfected with wild type human CD20
[2] = molecular target: human CD20 (human) (UniProt P11836); experiment: flow cytometry on SU-DHL-4 cells
[3] = molecular target: human CD20 (human) (UniProt P11836); experiment: cell-based or functional assay
[4] = molecular target: T2, CD20-A170S P172S variant; experiment: flow cytometry on 300-19 cells transfected with human CD20 A170S P172S
[5] = molecular target: T3, CD20 N163D; experiment: flow cytometry on 300-19 cells transfected with human CD20 N163D
[6] = molecular target: T1, human CD20; experiment: flow cytometry on BJAB cells, apparent dissociation constant from the MFI dose-response curve; muCD20-6 on BJAB cells
Procedure: (§1) Binding specificity was tested by flow cytometry using purified antibodies. […] Then, the cells were pelleted, washed, and incubated for 1 h with 100 μL of FITC-conjugated goat anti-mouse IgG-antibody (such as is obtainable from, for example Jackson Laboratory, 6 μg/mL in FACS buffer). The cells were pelleted again, washed with FACS buffer and resuspended in 200 μL of PBS containing 1% formaldehyde. Samples were acquired using a FACSCalibur flow cytometer with the HTS multiwell sampler or a FACS array flow cytometer and analyzed using CellQuest Pro (all from BD Biosciences, San Diego, US).
(§2) Data analysis was performed using CellQuest Pro (BD Biosciences, San Diego, US) and for each sample the mean fluorescence intensity for FL1 (MFI) was exported and plotted against the antibody concentration in a semi-log plot.

[7] = molecular target: T1, human CD20; experiment: flow cytometry on 300-19 cells transfected with wild type human CD20; remark: listed apart in the source
[8] = molecular target: T1, human CD20; experiment: flow cytometry on BJAB cells, apparent Kd
Procedure: as §1, §2
The value for the apparent dissociation constant (Kd) of each antibody was calculated using GraphPad Prism v4 (GraphPad software, San Diego, Calif.).

[9] = molecular target: T1, human CD20; experiment: flow cytometry on BJAB cells, apparent dissociation constant from the MFI dose-response curve; muCD20-7 on BJAB cells
Procedure: as §1, §2

[10] = molecular target: T4, CD20 N163D N166D; experiment: flow cytometry on 300-19 cells transfected with human CD20 N163D N166D
[11] = molecular target: T1, human CD20; experiment: flow cytometry on 300-19 cells transfected with wild type human CD20; remark: listed apart in the source

Molecule	binding result [4]	binding result [5]	EC50 (read off the curve) [7] [nM]	Kd [8] [nM]	further results
B1 (antibody)					EC50 (read off the curve) [1]: 0.4 nM
rituximab-SMCC-[^3H]DM1 (antibody)					EC50 (read off the curve) [2]: 1 nM; IC50, cell-based viability assay, CD20-positive SU-DHL-4 cells [3]: 0.24 nM
B1	binds	no binding (tested: 10^-7.5 M (about 3x10^-8 M))	~0.8		Kd [6]: 0.4 nM
B2	binds	no binding (tested: 10^-7.5 M (about 3x10^-8 M))	~0.5	0.4	Kd [9]: 0.3 nM; binding result [10]: no binding (tested: 10^-7.5 M (about 3x10^-8 M))
B3				0.5	
B4					EC50 (read off the curve) [11]: ~0.5 nM
